Source: patent US20230183354A1 (IMMIOS HOLDING B V, published 2023)
Substitutions are numbered along the chain they refer to.

T1: CHO.K1-rhesusCD103/beta7
T1 construct: also called CHO.K1-rhCD103/rhBeta7; CHO-K1.rhCD103/rhBeta7
T1 alpha chain (rhesus integrin Alpha-E, CD103): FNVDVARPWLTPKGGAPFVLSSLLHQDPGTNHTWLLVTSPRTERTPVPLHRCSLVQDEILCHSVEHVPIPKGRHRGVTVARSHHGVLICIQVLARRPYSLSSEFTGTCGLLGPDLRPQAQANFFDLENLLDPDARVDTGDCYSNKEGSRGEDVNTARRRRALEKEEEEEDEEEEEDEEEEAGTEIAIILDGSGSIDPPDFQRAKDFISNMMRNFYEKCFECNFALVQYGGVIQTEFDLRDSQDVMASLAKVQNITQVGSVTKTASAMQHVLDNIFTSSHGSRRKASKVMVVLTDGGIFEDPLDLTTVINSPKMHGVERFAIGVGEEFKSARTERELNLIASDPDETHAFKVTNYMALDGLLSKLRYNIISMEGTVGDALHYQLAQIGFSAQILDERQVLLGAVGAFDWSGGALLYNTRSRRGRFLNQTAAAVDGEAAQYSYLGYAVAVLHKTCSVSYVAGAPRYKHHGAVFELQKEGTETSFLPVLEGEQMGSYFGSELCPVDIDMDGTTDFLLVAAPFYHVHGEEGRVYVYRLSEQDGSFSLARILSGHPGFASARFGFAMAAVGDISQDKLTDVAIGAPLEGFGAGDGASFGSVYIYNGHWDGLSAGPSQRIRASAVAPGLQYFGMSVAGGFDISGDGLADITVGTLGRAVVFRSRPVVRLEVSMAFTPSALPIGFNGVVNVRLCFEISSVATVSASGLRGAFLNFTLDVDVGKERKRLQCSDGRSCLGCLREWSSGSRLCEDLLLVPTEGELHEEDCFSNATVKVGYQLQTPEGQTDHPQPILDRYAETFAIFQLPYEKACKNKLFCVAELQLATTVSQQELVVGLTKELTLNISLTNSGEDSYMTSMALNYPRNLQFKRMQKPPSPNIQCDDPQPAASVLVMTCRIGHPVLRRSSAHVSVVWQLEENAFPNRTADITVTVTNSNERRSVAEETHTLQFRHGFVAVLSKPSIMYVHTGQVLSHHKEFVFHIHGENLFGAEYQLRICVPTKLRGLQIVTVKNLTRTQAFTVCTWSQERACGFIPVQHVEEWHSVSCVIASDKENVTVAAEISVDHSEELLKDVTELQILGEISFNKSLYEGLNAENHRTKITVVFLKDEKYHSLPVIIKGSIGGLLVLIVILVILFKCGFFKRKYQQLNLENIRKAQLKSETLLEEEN
T1 beta chain (rhesus integrin Beta-7): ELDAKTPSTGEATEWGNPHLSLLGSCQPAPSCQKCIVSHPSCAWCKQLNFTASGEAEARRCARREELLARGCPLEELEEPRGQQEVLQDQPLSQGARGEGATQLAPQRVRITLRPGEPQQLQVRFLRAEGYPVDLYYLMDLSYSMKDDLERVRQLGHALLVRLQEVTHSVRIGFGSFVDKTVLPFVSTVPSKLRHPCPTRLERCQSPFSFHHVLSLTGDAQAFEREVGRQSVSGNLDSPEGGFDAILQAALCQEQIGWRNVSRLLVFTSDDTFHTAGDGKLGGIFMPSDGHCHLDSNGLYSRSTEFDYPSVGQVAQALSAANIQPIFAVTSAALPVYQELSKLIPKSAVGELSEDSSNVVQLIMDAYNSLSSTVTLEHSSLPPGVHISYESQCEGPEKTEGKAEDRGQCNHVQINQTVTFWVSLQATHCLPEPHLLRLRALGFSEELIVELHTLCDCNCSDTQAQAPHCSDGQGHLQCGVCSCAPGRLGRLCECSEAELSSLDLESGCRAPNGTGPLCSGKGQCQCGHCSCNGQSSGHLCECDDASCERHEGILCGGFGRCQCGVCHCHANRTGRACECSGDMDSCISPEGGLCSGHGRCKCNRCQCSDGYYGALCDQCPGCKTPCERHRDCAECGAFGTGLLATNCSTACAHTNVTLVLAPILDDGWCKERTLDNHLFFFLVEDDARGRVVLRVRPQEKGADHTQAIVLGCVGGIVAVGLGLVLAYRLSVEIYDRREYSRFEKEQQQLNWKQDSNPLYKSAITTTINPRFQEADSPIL

B1: hCD103.06A (antibody, mouse IgG1, V domains shown)
VH: QVQLQQPGSELVRPGASVKLSCKASGYTFTSYWMHWVKQRHGQGLEWIGNIYPGSGSTNYDEKFKSKGTLTVDTSSSTAYMHLSSLTSEDSAVYYCTRGVYDNPYYFDYWGQGTTLTVSS
VL: DIQMTQSSSNLSVSLGGRVTITCKASDHINNWLAWYQQKPGNAPRVLISGATSLETGVPSRFSGSGSGKDYTLSITSLQTEDVATYYCQQYWSIPLTFGAGTKLELK
notes: also called clone 06A; hCD103.06 mAb
B2: hCD103.05A (antibody, mouse IgG1, V domains shown)
VH: EVQLQQSGPELEKPGASAKISCKASGYSFTGYNMNWVKQSNGKSLEWIGNIDPYYGGTSYNQKFKGKATLTVDKSSSTAYMQLKSLTSEDSAVYYCARSFYGYDAGSPYNYAMDYWGQGTPVTVSP
VL: DIVMTQSHKFMSTSVGDRVSITCKASQDVGTFVAWYQQKPGQSPKLLIYWASTRHTGVPDRFTGSGSGTDFTLTISNVQSEDLADYFCHQYSSYPYTFGGGTQLEIK
notes: Also tested labelled with AF647, conjugated with Df and labelled with 89Zr; these are written under this molecule; also called clone 05A; hCD103.05 mAb
B3: hCD103.07A (antibody, mouse IgG1, V domains shown)
VH: EVQLQESGPSLVKPSQTLSLTCSVTGDSITSGYWNWIRKFPGNKLEYMGYITYSGSTYYNPSLKSRISITRDTSKNQYYLQLNSVTTEDTATYYCARNYYGSSSMDYWGQGTSVTVSS
VL: DIVMTQSQKFMSTSVADRVSVTCKASQNVGSDVAWYQQKPGQSPKSLIYSASYRYSGVPDRFTGSGSGTDFTLTISNVQSEDLAEYFCQQYNSYPSTFGGGTKLEIK
notes: also called clone 07A
B4: hCD103.01A (antibody, V domains shown)
VH: B3 VH with A96T, N98H, S103D, S104A
VL: DIVMTQSHKFMSTSVGDRVSITCKASQDVSIAVAWYQQRPGQSPKLLIYSASYRYTGVPDRFTGSGSGTDFTFTISSVQAEDLAVYYCQQHYSTPWTFGGGTKLEIK
notes: Also tested labelled with AF647, conjugated with Df and labelled with 89Zr; these are written under this molecule; also called clone 01A; hCD103.01 mAb

What follows are binders tested against T2, human CD103 (integrin Alpha-E) / human integrin Beta-7 heterodimer on cells (human, UniProt P38570 19-1179; P26010 20-798) (assay: flow cytometry competition on CD103+CD8+ T cells; pre-incubation with unlabeled 07A; table n=1).
T2 construct: the assay field tells which cells; also called hCD103/hBeta7; CHO.K1-hCD103/hBeta7
Method: (§1) Percentage binding of fluorescently labeled mAbs was determined using flow cytometry. Maximum binding was set at 100%

T2 sequence (P38570 19-1179 limits assumed, chain 1 of 2): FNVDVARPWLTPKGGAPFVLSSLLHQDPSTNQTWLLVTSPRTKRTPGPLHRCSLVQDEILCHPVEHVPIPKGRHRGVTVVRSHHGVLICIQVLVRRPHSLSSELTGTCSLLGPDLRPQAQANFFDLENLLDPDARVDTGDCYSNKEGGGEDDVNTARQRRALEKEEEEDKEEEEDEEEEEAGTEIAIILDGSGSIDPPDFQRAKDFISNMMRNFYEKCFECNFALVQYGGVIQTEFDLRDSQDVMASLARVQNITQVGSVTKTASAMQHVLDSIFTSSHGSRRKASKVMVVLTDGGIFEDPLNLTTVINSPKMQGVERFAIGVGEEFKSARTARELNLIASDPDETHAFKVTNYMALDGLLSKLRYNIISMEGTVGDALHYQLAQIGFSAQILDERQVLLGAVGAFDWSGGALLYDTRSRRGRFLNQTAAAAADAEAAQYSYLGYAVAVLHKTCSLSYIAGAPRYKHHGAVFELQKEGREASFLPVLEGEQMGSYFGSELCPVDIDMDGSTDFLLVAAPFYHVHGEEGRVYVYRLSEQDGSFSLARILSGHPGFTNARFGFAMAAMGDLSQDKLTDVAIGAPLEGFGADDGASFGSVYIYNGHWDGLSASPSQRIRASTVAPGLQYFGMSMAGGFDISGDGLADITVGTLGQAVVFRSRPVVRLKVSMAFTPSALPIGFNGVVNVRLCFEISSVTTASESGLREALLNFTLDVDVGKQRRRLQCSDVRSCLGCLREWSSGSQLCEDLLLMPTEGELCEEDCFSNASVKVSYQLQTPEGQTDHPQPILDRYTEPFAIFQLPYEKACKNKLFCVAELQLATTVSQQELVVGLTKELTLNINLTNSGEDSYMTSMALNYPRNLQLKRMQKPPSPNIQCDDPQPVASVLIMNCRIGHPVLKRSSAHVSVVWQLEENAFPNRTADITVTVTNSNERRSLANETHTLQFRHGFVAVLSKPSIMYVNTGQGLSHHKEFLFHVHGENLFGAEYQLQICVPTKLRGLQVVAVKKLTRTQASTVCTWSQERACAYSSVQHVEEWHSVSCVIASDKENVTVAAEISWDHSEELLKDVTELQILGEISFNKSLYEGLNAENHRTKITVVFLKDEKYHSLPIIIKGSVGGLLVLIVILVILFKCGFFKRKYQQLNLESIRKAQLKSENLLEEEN
T2 sequence (P26010 20-798 limits assumed, chain 2 of 2): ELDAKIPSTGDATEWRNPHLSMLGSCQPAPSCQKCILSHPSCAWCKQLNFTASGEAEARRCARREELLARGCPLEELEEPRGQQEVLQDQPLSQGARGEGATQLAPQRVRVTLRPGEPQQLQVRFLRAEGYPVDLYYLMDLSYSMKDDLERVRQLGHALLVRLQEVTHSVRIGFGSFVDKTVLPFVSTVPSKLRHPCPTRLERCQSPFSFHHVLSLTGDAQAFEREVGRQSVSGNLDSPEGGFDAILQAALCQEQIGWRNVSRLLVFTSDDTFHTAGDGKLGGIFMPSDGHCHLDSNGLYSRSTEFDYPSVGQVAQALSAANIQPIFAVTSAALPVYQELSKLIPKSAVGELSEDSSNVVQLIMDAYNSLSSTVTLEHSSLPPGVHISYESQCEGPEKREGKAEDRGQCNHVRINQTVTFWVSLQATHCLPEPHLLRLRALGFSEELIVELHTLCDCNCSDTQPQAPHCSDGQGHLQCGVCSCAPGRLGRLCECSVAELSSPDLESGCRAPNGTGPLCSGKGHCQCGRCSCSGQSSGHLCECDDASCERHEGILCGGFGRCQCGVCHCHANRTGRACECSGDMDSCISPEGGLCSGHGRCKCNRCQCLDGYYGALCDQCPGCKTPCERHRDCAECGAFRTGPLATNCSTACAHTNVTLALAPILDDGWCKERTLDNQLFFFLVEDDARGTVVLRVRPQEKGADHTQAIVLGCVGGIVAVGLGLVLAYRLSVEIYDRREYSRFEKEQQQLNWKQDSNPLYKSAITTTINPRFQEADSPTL

| % binding of the fluorescently labeled mAb (IgG pre-incubation = 100) | Binder |
| --- | --- |
| 93.2% | B1 |
| 66.3% | B2 |
| 33.7% | B3 |
| 27.5% | B4 |

Each binder was assayed against T2, human CD103 (integrin Alpha-E) / human … (assay: flow cytometry competition on CD103+CD8+ T cells; pre-incubation with unlabeled 07A; table n=2).
Method: (§2) Percentage binding of fluorescently labeled mAbs was determined using flow cytometry. Maximum binding was set at 100%.
as §1

| % binding of the fluorescently labeled mAb (IgG pre-incubation = 100) | Binder |
| --- | --- |
| 97% | B1 |
| 56.9% | B2 |
| 29.8% | B3 |
| 26.6% | B4 |

What follows are binders tested against T2, human CD103 (integrin Alpha-E) / human … (assay: flow cytometry competition on CD103+CD8+ T cells; pre-incubation with unlabeled 02A; table n=1).
Method: as §2, §1

| % binding of the fluorescently labeled mAb (IgG pre-incubation = 100) | Binder |
| --- | --- |
| 104% | B1 |
| 4.3% | B2 |
| 0.5% | B3 |
| 2.3% | B4 |

Biological target: T1, CHO.K1-rhesusCD103/beta7
Assay: cell ELISA on CHO.K1-rhesusCD103/beta7 cells, abs 450-610

| EC50 (read off the curve) | Binder |
| --- | --- |
| ~50 ng/mL | B1 |
| ~20 ng/mL | B3 |
| ~50 ng/mL | B4 |

These binders were tested against T2, human CD103 (integrin Alpha-E) / human … (assay: cell ELISA on CHO.K1-humanCD103/beta7 cells, abs 450-610).

| EC50 (read off the curve) | Binder |
| --- | --- |
| ~40 ng/mL | B1 |
| ~10 ng/mL | B3 |
| ~20 ng/mL | B4 |

What follows are binders tested against T2, human CD103 (integrin Alpha-E) / human … (assay: flow cytometry competition on CD103+CD8+ T cells; pre-incubation with unlabeled 01A; table n=1).
Method: as §2, §1

| % binding of the fluorescently labeled mAb (IgG pre-incubation = 100) | Binder |
| --- | --- |
| 96% | B1 |
| 2.6% | B2 |
| 0.7% | B3 |
| 1.5% | B4 |

What follows are binders tested against T2, human CD103 (integrin Alpha-E) / human … (assay: flow cytometry competition on CD103+CD8+ T cells; pre-incubation with unlabeled 05A; table n=1).
Method: as §2, §1

| % binding of the fluorescently labeled mAb (IgG pre-incubation = 100) | Binder |
| --- | --- |
| 101% | B1 |
| 13.1% | B2 |
| 7.9% | B3 |
| 71.8% | B4 |
